For one molecule, staining, fold over background results are on record in patent US20120213844A1.

The target of this test is human EGFR on tumor cells (human) (UniProt P00533). Put plainly: flow cytometry on A431 cells preincubated with 2 ug EGF, 2 uM bio-P190:avidin complex, 4 C. On the technique in general: A flow cytometer gives signals particle by particle.

Positions of bridges follow the written chain, without caps; N, C: chain ends. No end group written: not given here. PEG = not defined here

B1: Biotinylated-PEGylated P190 (peptide)
peptide: DPCTWEVWGRECLQ-{PEG-biotin}
modifications: disulfide 3-12 (inferred); reading uncertain
The molecule B1 displayed a staining, fold over background of 20 fold.
